Values joined by “and” are separate entries in the source; they are usually repeats but may differ in a detail not shown here. Equal values may be shown once.
Columns and labels:
[1] = target: T1, Activated leukocyte cell adhesion molecule (ALCAM), on cells (human, UniProt Q13740 28-583); assay: apparent KD on cells
T1 construct: whole, on cells; also called guide antigen
T1 sequence (looked up): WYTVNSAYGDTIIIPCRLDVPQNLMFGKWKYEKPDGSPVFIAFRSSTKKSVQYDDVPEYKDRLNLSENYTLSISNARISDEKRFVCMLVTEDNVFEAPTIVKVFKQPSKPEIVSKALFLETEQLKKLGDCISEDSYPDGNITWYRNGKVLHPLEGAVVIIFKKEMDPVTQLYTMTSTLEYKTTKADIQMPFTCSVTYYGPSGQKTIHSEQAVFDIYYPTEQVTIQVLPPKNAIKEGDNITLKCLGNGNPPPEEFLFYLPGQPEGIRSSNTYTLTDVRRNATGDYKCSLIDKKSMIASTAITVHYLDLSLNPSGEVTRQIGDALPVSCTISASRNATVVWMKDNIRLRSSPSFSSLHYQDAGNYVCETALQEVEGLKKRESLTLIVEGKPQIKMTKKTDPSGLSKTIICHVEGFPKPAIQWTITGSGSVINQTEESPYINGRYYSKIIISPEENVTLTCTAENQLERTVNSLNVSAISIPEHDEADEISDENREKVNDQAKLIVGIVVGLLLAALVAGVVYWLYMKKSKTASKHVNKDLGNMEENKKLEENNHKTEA

[2] = target: T2, Low-density lipoprotein receptor-related protein 6 (LRP6), human, on cells (human, UniProt O75581 20-1613); assay: cell-based or functional assay
T2 sequence (O75581 20-1613): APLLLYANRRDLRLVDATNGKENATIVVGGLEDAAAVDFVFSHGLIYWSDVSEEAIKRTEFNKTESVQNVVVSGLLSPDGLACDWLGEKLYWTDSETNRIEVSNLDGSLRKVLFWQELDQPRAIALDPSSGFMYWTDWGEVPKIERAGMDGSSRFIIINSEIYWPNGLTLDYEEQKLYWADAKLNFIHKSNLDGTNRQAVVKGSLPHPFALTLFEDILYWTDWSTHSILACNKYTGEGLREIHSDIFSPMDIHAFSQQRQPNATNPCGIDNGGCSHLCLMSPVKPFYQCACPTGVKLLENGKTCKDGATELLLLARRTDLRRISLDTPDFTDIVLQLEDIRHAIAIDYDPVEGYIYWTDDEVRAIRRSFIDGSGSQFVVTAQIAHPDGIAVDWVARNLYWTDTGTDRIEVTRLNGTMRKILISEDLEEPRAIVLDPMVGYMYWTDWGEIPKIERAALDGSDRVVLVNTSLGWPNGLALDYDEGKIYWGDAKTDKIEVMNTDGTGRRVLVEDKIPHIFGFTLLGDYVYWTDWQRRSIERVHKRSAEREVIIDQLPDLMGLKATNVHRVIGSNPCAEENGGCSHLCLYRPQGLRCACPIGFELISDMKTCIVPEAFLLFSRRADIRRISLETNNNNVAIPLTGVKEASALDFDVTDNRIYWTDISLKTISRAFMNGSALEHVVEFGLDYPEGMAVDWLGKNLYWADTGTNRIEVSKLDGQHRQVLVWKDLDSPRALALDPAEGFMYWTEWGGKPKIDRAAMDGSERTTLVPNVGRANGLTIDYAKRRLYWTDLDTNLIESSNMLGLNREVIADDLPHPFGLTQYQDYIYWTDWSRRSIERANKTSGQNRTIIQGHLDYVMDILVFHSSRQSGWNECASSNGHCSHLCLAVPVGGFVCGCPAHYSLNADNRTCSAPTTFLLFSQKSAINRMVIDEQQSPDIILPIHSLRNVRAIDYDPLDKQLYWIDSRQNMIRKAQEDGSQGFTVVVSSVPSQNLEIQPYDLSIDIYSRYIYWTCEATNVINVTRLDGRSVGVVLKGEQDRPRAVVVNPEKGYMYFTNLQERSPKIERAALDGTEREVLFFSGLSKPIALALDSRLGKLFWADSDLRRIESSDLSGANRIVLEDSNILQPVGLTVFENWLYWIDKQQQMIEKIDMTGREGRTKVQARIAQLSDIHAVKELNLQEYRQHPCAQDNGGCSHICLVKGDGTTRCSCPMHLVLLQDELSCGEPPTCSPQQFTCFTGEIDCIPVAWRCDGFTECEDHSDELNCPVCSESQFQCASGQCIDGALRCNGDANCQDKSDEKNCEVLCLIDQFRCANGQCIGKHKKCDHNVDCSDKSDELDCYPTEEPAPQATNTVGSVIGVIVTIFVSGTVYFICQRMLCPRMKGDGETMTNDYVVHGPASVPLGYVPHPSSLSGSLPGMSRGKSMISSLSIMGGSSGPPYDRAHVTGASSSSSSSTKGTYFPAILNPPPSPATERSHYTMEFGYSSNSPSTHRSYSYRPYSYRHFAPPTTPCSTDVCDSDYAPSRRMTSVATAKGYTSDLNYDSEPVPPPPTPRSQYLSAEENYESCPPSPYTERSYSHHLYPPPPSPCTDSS

[3] = target: T2, Low-density lipoprotein …; assay: apparent KD, flow cytometry on HEK293 cells that express LRP6, curve fit
Experimental: FIGS. 7A-7E depict the results illustrating characterization of anti-LRP6 scFvs and derived bsAbs. FIG. 7A depicts the results of anti-LRP6 scFv-phage screening by flow cytometry analysis. Individual scFv-phage clones were separately amplified from the 3rd round panning output against LRP6E1E2 or LRP6E3E4 domain. scFv-phage particles were incubated with parental HEK293 or LRP6-transfected HEK293 cells and detected by biotinylated anti-M13 IgG and PE-labeled streptavidin. Relative MFI values (folds of phage binding to LRP6+ cells against LRP6− cells) were plotted on a graph. FIGS. 7B and 7C depict the results of flow cytometry analysis for binding kinetics of E34N19 (B) or E12N21 (C) scFv-Fc to HEK293 cells. The apparent KD was calculated based on the non-linear curve fittings by Prism 5 program. FIG. 7D depicts the results of cell-binding analysis of mono- or bi-specific anti-LRP6 antibodies. Binding of E34N19 scFv-Fc, E34N19 IgG, H/6 TaFv-Fc, 6/H bsIgG, or H3 IgG (each 100 nM) to HEK293 cells originally expressing ALCAM was analyzed by flow cytometry. […]
The apparent antibody binding affinity was measured on target cells by FACS as described (An, Zhu). […] After 1 hr incubation, cells were washed and analyzed by FACS as described above. The apparent KD was determined by a curve fit method using MFI values as described (Benedict, An, Zhu).

[4] = target: Low-density lipoprotein receptor-related protein 6 (LRP6), human, on cells (human) (UniProt O75581); assay: cell-based or functional assay
Sequence of Low-density lipoprotein receptor-related protein 6 (LRP6), human, on cells (human) (O75581 20-1613): as above

[5] = target: T3, Ephrin type-A receptor 2 (EphA2), human, on cells (human, UniProt P29317 24-976); assay: FACS
T3 construct: whole, on cells; also called guide antigen
T3 sequence (P29317 24-976): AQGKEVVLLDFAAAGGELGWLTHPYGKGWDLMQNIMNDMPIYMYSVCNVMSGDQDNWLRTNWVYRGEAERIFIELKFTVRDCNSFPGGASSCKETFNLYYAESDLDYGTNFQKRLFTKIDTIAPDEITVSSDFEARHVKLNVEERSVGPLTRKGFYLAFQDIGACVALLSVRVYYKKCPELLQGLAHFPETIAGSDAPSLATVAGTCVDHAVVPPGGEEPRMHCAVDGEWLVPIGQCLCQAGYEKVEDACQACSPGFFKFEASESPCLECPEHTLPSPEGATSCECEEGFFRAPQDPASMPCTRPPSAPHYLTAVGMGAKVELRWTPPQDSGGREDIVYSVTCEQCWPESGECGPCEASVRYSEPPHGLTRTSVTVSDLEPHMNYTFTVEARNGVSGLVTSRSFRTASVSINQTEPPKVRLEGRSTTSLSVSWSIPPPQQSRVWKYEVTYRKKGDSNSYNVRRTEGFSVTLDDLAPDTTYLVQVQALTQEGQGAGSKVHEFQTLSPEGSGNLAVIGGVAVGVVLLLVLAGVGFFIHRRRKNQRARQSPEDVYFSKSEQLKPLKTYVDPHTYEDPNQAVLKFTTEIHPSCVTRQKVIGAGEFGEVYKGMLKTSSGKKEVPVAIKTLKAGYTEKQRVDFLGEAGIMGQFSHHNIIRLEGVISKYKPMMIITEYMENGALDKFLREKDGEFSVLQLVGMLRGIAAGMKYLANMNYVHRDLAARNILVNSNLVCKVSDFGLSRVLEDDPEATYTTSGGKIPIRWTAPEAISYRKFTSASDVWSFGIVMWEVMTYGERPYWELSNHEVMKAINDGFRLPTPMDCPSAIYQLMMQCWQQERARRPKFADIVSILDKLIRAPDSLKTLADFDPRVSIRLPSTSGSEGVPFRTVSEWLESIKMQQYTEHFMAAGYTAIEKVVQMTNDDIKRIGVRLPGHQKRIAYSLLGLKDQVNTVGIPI

[6] = target: T4, EphA2, murine, on CT26 cells (mouse, UniProt Q03145 26-977); assay: FACS on murine colon cancer cell line CT26 that expresses EphA2
T4 construct: whole, on cells; also called murine antigen
T4 sequence (Q03145 26-977): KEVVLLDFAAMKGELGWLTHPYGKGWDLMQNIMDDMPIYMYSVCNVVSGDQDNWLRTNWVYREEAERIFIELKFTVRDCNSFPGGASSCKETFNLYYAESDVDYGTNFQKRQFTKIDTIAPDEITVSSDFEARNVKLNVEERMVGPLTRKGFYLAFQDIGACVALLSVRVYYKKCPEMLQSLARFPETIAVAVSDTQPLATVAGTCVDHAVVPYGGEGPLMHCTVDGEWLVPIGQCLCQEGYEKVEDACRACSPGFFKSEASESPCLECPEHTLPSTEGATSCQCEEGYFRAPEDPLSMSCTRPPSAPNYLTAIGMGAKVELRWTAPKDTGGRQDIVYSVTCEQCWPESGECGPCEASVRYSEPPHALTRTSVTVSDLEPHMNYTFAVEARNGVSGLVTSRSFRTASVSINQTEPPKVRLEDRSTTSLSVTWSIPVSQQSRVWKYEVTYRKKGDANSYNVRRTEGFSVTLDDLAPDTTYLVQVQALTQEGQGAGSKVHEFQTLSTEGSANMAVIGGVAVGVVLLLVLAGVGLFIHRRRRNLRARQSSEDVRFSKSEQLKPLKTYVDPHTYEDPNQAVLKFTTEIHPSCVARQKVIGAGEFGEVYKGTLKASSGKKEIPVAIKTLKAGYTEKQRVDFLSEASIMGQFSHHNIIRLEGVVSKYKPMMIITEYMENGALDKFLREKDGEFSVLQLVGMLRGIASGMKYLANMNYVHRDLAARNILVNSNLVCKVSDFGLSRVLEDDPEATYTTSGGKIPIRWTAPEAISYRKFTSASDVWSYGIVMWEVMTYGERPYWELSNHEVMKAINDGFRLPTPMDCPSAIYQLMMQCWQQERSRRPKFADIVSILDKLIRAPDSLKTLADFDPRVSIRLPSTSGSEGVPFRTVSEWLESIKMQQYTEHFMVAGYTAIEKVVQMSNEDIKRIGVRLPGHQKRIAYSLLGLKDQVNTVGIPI

B1: PD32 (anti-ALCAM guide antibody, format not stated) (antibody, V domains shown)
VH: QVQLQESGGGLVQPGGSLRLSCAASGFTFSSYALSWVRQAPGKGLEWVSAISGSGGSTYYAGSVKGRFTISRDNSKNTLYLQMNSLRAEDTAVYYCAKGLIASHWGQGTLVTVSS
VL: SELTQDPAVSVALGQTVRITCQGDSLRSYYASWYQQKPGQAPVLVIYGKNNRPSGIPDRFSGSSSGNTASLTITGAQAEDEADYYCNSRDSSGIHLVFGGGTKLTVL
notes: Called 'guide antibody' and 'corresponding mAbs'; also called GPD32
B1 showed a Kd [1] of 0.388 nM.

B2: E12N21 scFv-Fc (Fc fusion)
scFv: QVQLQESGGGLVKPGGSLRLSCAASGFTFSSYWMSWVRQAPGKGLEWVANIKQDGSEKYYVDSVKGRFTISRDNSKNTLYLQMNSLRAEDTAIYYCAKTMTASAWLGGGRDSWGQGTLVTVSSGGGGSGGGGSGGGGSQSVLTQDPAVSVALGQTVRITCQGDSLRTLSTNWYQQKSGQAPVLVIYGNSNRPSGVPDRFSGSSSGNTASLTITGAQAEDEADYYCQSYDNSVRGSRVFGTGTKLTVL
notes: scFv gene cloned into unmodified pFUSE-hIgG1-Fc2; also called monoclonal E12N21; not shown: human IgG1 Fc of vector pFUSE-hIgG1-Fc2 (InvivoGen)
With B2 the “IC50, STF reporter, Wnt1-transfected HEK293” value [2] was ~3.5 nM, the “IC50, Wnt1-induced STF reporter activity, HEK293” value [2] was 2.63 nM and the Kd [3] was ~5.2 nM.

B3: E34N19/H3 bsIgG (bispecific antibody, part only; not given: constant regions and CL-scFv linker, not shown: another chain or arm of the molecule; a dimerising Fc or GST; small tags and cut ends)
VH: QVNLRESGGGLVQPGGSLRLSCAASGFTFSSYAMSWVRQAPGKGLEWVSAISGSGGSTYYADSVKGRFTISRDNSKNTLYLQMNSLRAEDTAVYYCAKVRGHGGNSGWVDYWGQGTLVTVSS
VL: QSVLTQDPAVSVALGQTVKITCQGDSLRTYYTSWYQQRPGQAPILVLYANTHRPSSIPDRFSGSSSGTTASLTITGAQAEDEADYYCNSRDSSGNYLFGGGTKLTVL
scFv: QVQLVESGGGLVQPGGSLRLSCAASGFTFSSYAMSWVRQAPGKGLEWVSAISGSGGSTYYADSVKGRFTISRDNSKDTLYLQMNSLRAEDTAVYYCASRSLLDYWGQGTLVTVSSGGGGSGGGGSGGGGSNFMLTQNPAVSVALGQTVRITCQGDSLRSYYASWYQQKPGQAPLLVIYGKNNRPSGIPDRFSGSSSGNTASLTITGAQAEDEADYYCNSRDSSGNPVFGGGTKVTVL
In the case of B3, the IC50, STF reporter, Wnt3a-transfected HEK293 [4] is reported as 0.0446 nM.

B4: E34N19 IgG (antibody, V domains shown)
VH: B3 VH
VL: B3 VL
In the case of B4, the “IC50, STF reporter, Wnt3a-transfected HEK293” value [2] is reported as 5.2 nM.

B5: RYR (anti-EphA2 guide antibody, format not stated) (antibody, V domains shown)
VH: QVQLQESGGGLVQPGGSLRLSCAASGFTFSSYSMNWVRQAPGKGLEWVSYISSSSSTIYYADSVKGRFTISRDNAKNSLYLQMNSLRAEDTAVYYCARYRLPDFWSGYPNYGMDVWGQGTTVTVSS
VL: QSVLTQPPSVSGAPGQRVTISCTGSSSNIGAGYDVHWYQQLPGTAPKLLIYGNSNRPSGVPDRFSGSKSGTSASLAITGLQAEDEADYYCQSYDSSLSGHVVFGGGTKLTVL
notes: also called HCA-F1
B5: binds [5]; binds [6].

B6: H3 IgG (antibody, V domains shown)
VH: QVQLVESGGGLVQPGGSLRLSCAASGFTFSSYAMSWVRQAPGKGLEWVSAISGSGGSTYYADSVKGRFTISRDNSKDTLYLQMNSLRAEDTAVYYCASRSLLDYWGQGTLVTVSS
VL: NFMLTQNPAVSVALGQTVRITCQGDSLRSYYASWYQQKPGQAPLLVIYGKNNRPSGIPDRFSGSSSGNTASLTITGAQAEDEADYYCNSRDSSGNPVFGGGTKVTVL
notes: IgG; also called anti-ALCAM H3 IgG; guide antibody H3
B6 was tested, and the Kd [1] was 0.00734 nM.

B7: E34N19 scFv-Fc (Fc fusion)
scFv: QVNLRESGGGLVQPGGSLRLSCAASGFTFSSYAMSWVRQAPGKGLEWVSAISGSGGSTYYADSVKGRFTISRDNSKNTLYLQMNSLRAEDTAVYYCAKVRGHGGNSGWVDYWGQGTLVTVSSGGGGSGGGGSGGGGSQSVLTQDPAVSVALGQTVKITCQGDSLRTYYTSWYQQRPGQAPILVLYANTHRPSSIPDRFSGSSSGTTASLTITGAQAEDEADYYCNSRDSSGNYLFGGGTKLTVL
notes: scFv gene cloned into unmodified pFUSE-hIgG1-Fc2; In some assays biotin-labelled as the detection reagent; also called monospecific E34N19; anti-effector mAb E34N19; not shown: human IgG1 Fc of vector pFUSE-hIgG1-Fc2 (InvivoGen)
B7 was tested, and the “EC50 (so in the source), STF reporter, Wnt3a, HEK293” value [2] was 3.02 nM, the “IC50, STF reporter, Wnt3a-transfected HEK293” value [2] was ~3 nM and 3.43 nM and the Kd [3] was ~1.4 nM.

Source: patent publication US20190330365A1 (University of California, published 2019)
